Data from US20240425571A1, “GLYCOPROTEIN A REPETITIONS PREDOMINANT (GARP)-BINDING ANTIBODIES AND USES THEREOF” (OHIO STATE INNOVATION FOUNDATION, priority 2021, published 2024).
Residue numbers refer to the chain shown, from its start.

T1: antigen (Homo sapiens, UniProt Q14392)
T1 sequence (Q14392 20-662): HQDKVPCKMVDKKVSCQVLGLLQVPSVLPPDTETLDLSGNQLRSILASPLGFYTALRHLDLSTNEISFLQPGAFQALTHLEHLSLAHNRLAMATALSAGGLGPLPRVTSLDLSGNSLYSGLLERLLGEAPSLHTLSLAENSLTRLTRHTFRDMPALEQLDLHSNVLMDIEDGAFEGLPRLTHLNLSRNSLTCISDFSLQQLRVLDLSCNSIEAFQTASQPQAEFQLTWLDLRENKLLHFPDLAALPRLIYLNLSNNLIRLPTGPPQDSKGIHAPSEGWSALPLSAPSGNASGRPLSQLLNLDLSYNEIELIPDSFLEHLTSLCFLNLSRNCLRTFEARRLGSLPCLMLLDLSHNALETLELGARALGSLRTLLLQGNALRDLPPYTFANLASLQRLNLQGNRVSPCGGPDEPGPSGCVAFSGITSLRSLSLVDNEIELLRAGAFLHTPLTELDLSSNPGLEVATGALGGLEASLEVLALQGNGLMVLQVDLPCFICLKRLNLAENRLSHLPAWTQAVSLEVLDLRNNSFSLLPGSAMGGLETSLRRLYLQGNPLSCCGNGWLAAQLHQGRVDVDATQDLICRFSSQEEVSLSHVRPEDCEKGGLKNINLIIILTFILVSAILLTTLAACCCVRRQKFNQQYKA

B1: H1L2: humanized PIIO-1 antibody, VH SEQ ID NO: 20 and VL SEQ ID NO: 24 (antibody, V domains shown)
VH: QVQLQESGPGLVKPSQTLSLTCTVSGYSITSDYAWNWIRQFPGNKLEWMGYISYSGSTSYTPSLKSRVTISRDTSKNHFSLKLSSVTAADTAVYYCAKSGGDYYGSSSYWYFDVWGQGTMVTVSS
VL: DIVLTQSPSSLAVSLGERVTMNCKSSQSLLNSRSQKNYLAWYQQKPGQPPKLLIYGASTRGSGVPDRFSGSGSGTDFTLTISSVQAEDVAVYYCQNDHSYPFTFGQGTKLEIKR
B2: H2L1: humanized PIIO-1 antibody, VH SEQ ID NO: 21 and VL SEQ ID NO: 23 (antibody, V domains shown)
VH: B1 VH with V68I, S80F
VL: B1 VL with V19A, V84L

Experiments:
Ag(−) cell = assay: FACS analysis with Ag(−) cell (non-specific binding); details: 5 ug/ml
Procedure: Methods—FACS analysis. Cell preparation: Cell were harvested and washed with PBS+2% FBS for one time. Cell density was adjusted to 1.5E6/mL in PBS/2% FBS. Cell were added to 96 U-bottom well plates at 100 μL/well. Antibody samples preparation: Antibody in supernatant was adjusted to 10 μg/mL using PBS+2% FBS, with serial 5 times dilution performed to obtain 3 concentrations of antibody solution. The blank was PBS+2% FBS. Antibody solutions were placed into 96 U-bottom well plates at 100 μL/well in the same arranging pattern as the cell preparation. Incubation: The antibody samples (100 μl) were mixed with the cells (100 μl), and incubated at RT for 1 h, then centrifuged the plate for 3 min at 1000 rpm (swing bucket). The supernatant was pipetted and the cells were washed with PBS+2% FBS for one time. Incubation with the secondary antibody: Cy3-Conjugated AffiniPure Goat Anti-Human IgG was diluted 250× by PBS+2% FBS, and added to the 96 U-bottom well plate with 100 μl/well, then incubated at RT for 30 min. After that, the plate was centrifuged at 1000 rpm for 3 min and the supernatant was pipetted out. The cell was washed with PBS+2% FBS twice. Cells were re-suspended in 200 μl PBS+2% FBS and analyzed on FACS. The MFI of total live cells were used as binding signal.
Methods—heat treatment. Culture supernatant was serial diluted to the indicated concentration of IgG with cell media and heated at 70° C. for 5 mins on a PCR machine, then quickly cooled down to room temperature.

antigen = target: T1, antigen; assay: Label-free kinetic binding assay on Gator; details: for Rmax / koff / kon: IgG 2 μg/ml on anti-human Fc probes, antigen 5 μg/ml
Procedure: Affinity measurement. Label-free kinetic binding assay was performed on Gator (similar to Octet).
Methods. Affinity was measured on Gator (ProbeLife, Palo Alto). In brief, the purified IgG sample was diluted in K buffer at 2 μg/ml, and the antigen was diluted at 5 μg/ml. The antibody-loaded anti-human Fc probes were dipped in antigen wells for 5 mins and then moved to K buffer wells for 5 mins. In the whole process, the sample plate was shaken at 1,000 rpm. The data analysis was carried out using Gator software (ProbeLife).

[1] = Aggregation potential by DLS analysis; format: physicochemical; details: for Peak 1 Mass / Peak 1 Mode Diameter / Peak 1 PDI / Peak 2 Mass: DLS at 25° C.
Procedure: Aggregation potential by DLS analysis. DLS was performed on UNcle system (Unchained Labs). DLS was measured at 25° C. Data was calculated and analyzed using UNcle Analysis Software. DLS: Dynamic light scattering PDI: Polydispersity index, PDI=(standard deviation/mean hydrodynamic radius).
Dynamic Light Scattering (DLS) is used to detect aggregation in the antibody sample. “Mode diameter” is protein particle diameter and “mass percentage” is the amount of each size fraction in percentage. “PDI” is Polydispersity Index; the higher this index, the more polydispersity in the sample is. […] Peak 1 is the major peak and represents the IgG monomer. The inventor takes “Peak 1 mass percentage” and “PDI” value into consideration in selecting a lead.

Baculovirus = Baculovirus (BV) ELISA for non-specific binding
Procedure: Baculovirus (BV) ELISA was employed as a preliminary assay to evaluate antibody's potential nonspecific binding risk.
In Baculovirus (BV) ELISA, the inventor used Rituxan Mab as reference. […] If a clone only has binding on BV, but not on 293 cells, it will be considered as having a low risk of non-specific binding.
Methods—Baculovirus ELISA. Plates are coated with 50 μl of 1:500 diluted Baculovirus sample in PBS in each well. Plates are kept at 4° C. for overnight. The plates are washed with 300 μL of wash buffer ×3 and 200 μl blocking buffer (1% BSA) is added at RT for 60 min. Plates are washed with 300 μl of wash buffer ×3 and 100 μl of diluted Abs are added at different concentrations/well, followed by RT incubation for 1 hr. Plates are washed with 300 μl of wash buffer ×6 and 100 μl of 1:5000 HRP conjugated second Ab in PBS is added followed by RT incubation for 1 hr. The plates are washed with 300 μl of wash buffer ×6. Developing buffer is added and the plate is read.

[2] = Non-reducing CE-SDS (heterogeneity); format: physicochemical
Procedure: (§1) Analysis of the heterogeneity by Capillary Electrophoresis (CE). The sample was prepared in reducing and non-reducing labeling buffer before being submitted to the CE analysis. A summary of the Reducing-CE-SDS and Non-Reducing-CE-SDS results are shown in FIG. 13A/Table H and FIG. 13B/Table I, respectively: […]

[3] = Reducing CE-SDS (heterogeneity); format: physicochemical; details: for OTHER (%) / PK#1 (%) / PK#2 (%) / PK#3 (%): Reducing-CE-SDS
Procedure: as §1

[4] = Thermostability by DSF/SLS (UNcle); format: physicochemical; details: for SLS Tagg 266: SLS at 266 nm; for SLS Tagg 473: SLS at 473 nm
Procedure: Developability Analysis for PIIO-1 humanization leads. Antibodies were analyzed for thermostability by DSF/SLS. Samples were submitted to the UNcle system (Unchained Labs) for analysis. A temperature ramp of 1° C./min was performed with monitoring from 20° C. to 95° C. for DSF and SLS. UNcle measures SLS at 266 nm and 473 nm. Tm and Tagg were calculated and analyzed by using the UNcle Analysis Software. DSF: Differential scanning fluorimetry; SLS: Static light scattering; Tm: Melting temperature; Tagg 266: Thermal aggregation when SLS at 266 nm; Tagg 473: Thermal aggregation when SLS at 473 nm. A summary is shown below in Table F:
IgG is a multi-domain structure and each domain has its own melting Temperature (Tm). […] Fabs have Tm in a wide range, generally about 50-85° C., due to large sequence variation. Therefore, the Tm values measured by various analytical techniques are usually “apparent” transition temperatures rather than the real Tm for each domain. In the case of whole IgG, there are often 2-3 Tm values in DSF measurement, presenting some challenge in determining which Tm represents which domain.
Tagg is the temperature at which SLS starts to detect aggregation particles. Tagg266 measures SLS at 266 nm, which is more sensitive and suitable to detect smaller aggregation particles. Tagg473 measures SLS at 473 nm and is better to detect larger particles.

[5] = ramp 1° C./min, 20° C. to 95° C.

| Molecule | FACS with Ag(−) cell (MFI) (Ag(−) cell; Heating) | FACS with Ag(−) cell (MFI) (Ag(−) cell; Non-Heating) | KD value compared with the chimeric (antigen) | Rmax (antigen) | koff (antigen) | kon (antigen) | comparison of humanized antibodies by Table G [1] | Peak 1 Mass [1] | Peak 1 Mode Diameter [1] | Peak 1 PDI [1] | Peak 2 Mass [1] | BV ELISA with purified IgG, raw BV binding data (Baculovirus; Ab. Conc. 0.15625 ug/ml) | BV ELISA with purified IgG, raw BV binding data (Baculovirus; Ab. Conc. 0.3125 ug/ml) | BV ELISA with purified IgG, raw BV binding data (Baculovirus; Ab. Conc. 0.625 ug/ml) | BV ELISA with purified IgG, raw BV binding data (Baculovirus; Ab. Conc. 1.25 ug/ml) | BV ELISA with purified IgG, raw BV binding data (Baculovirus; Ab. Conc. 2.5 ug/ml) | BV ELISA with purified IgG, raw BV binding data (Baculovirus; Ab. Conc. 5 ug/ml) | BV ELISA with purified IgG, raw BV binding data (Baculovirus; Ab. Conc. 10 ug/ml) | BV ELISA with purified IgG, raw BV binding data (Baculovirus; Ab. Conc. 20 ug/ml) | Main Peak (%) [2] | other results |
| --- | --- | --- | --- | --- | --- | --- | --- | --- | --- | --- | --- | --- | --- | --- | --- | --- | --- | --- | --- | --- | --- |
| B1 | 3.35 | 3.24 | same KD value to the chimeric | 0.885 | 0.000813 | 9.98E+04 | superior to huPIIO-1VH1VL1 | 99.94% | 9.68 nm | 0.361 | 0% | 15.6 | 15.4 | 23.5 | 26.6 | 39.6 | 38.1 | 102.3 | 253.4 | 97.6% | PDI compared with WT ([1]; listed as VH1VL2): slightly higher PDI than that of the chimeric clone; BV-binding in words (Baculovirus; purified antibodies, Rituxan as reference): a bit higher signal; OTHER (%) [2]: 2.4%; homogeneity (Table H) [3]: superior homogeneity versus clone huPIIO-1VH2VL1; OTHER (%) [3]: 0.9%; PK#1 (%) [3]: 1.4%; PK#2 (%) [3]: 29.1%; PK#3 (%) [3]: 68.7%; thermostability compared with parental 4D3 chimeric antibody (Table F) [4]: superior thermostability over the parental 4D3 chimeric antibody; SLS Tagg 266 [4]: 78.8 °C; SLS Tagg 473 [4]: 79.3 °C; aggregation risk ([4]; from Tagg266 and Tagg473 in SLS assay): very low aggregation risk; DSF TM2 [4, 5]: 76.7 °C; DSF Tm1 [4, 5]: 70.0 °C; DSF Tm3 [4, 5]: 87.5 °C |
| B2 | 3.29 | 3.23 | same KD value to the chimeric | 0.756 | 0.000806 | 1.00E+05 | superior to huPIIO-1VH1VL1 | 100% | 9.68 nm | 0.141 | 0% | 14.5 | 14.6 | 15.6 | 18.3 | 17.8 | 30.8 | 82.7 | 161.0 | 89.1% | OTHER (%) [2]: 10.8%; OTHER (%) [3]: 2.7%; PK#1 (%) [3]: 21.7%; PK#2 (%) [3]: 6.9%; PK#3 (%) [3]: 68.7%; SLS Tagg 266 [4]: 73.7 °C; SLS Tagg 473 [4]: 74.7 °C; DSF TM2 [4, 5]: 83.2 °C; DSF Tm1 [4, 5]: 69.9 °C |
